In paper PMC8748714 (2022) one finds IC50 and log10 ratio data, which are given here for eight molecules.

For assay [1], the target named is GLP-1R M204A (Homo sapiens).
In assay [2] the target is GLP-1R L141A (Homo sapiens).
The target in assay [3] is GLP-1R Y205A (Homo sapiens).
For assay [4], the target named is GLP-1R D198A (Homo sapiens).
The target of assay [5] is GLP-1R K202A (Homo sapiens).
Assay [6] concerns the target GLP-1R S206A (Homo sapiens).
Assay [7] has as its target GLP-1R P137A (Homo sapiens).
Assay [8] deals with GLP-1R E138A (Homo sapiens).
Assay [9] deals with GLP-1R Y145A (Homo sapiens).
Assay [10] addresses GLP-1R L144A (Homo sapiens).
Assay [11] addresses cMyc-GLP-1R K197A (human) (UniProt P43220).
Assay [12] concerns the target GLP-1R V194A (Homo sapiens).
In assay [13] the target is GLP-1R L201A (Homo sapiens).
Assay [14] concerns the target wild-type cMyc-GLP-1R (human) (UniProt P43220).
The target in assay [15] is GLP-1R Q211A (Homo sapiens).
Assay [16] has as its target cMyc-GLP-1R R190A (human) (UniProt P43220).
The target in assay [17] is cMyc-GLP-1R Y152A (human) (UniProt P43220).
In assay [18] the target is cMyc-GLP-1R Y148A (human) (UniProt P43220).
The target in assay [19] is GLP-1R H212A (Homo sapiens).
Assay [20] concerns the target GLP-1R Q210A (Homo sapiens).
For assay [21], the target named is GLP-1R S193A (Homo sapiens).
In assay [22] the target is GLP-1R L142A (Homo sapiens).
Assay [23] concerns the target GLP-1R V194A.
The target in assay [24] is GLP-1R L144A.
Assay [25] concerns the target GLP-1R Y145A.
In assay [26] the target is GLP-1R D198A.
Assay [27] deals with GLP-1R S193A.
The target of assay [28] is GLP-1R P137A.
Assay [29] concerns the target GLP-1R K202A.
Assay [30] has as its target GLP-1R Q210A.
Assay [31] has as its target GLP-1R M204A.
For assay [32], the target named is GLP-1R E138A.
The target in assay [33] is GLP-1R Y205A.
Assay [34] has as its target GLP-1R L142A.
For assay [35], the target named is GLP-1R H212A.
In assay [36] the target is GLP-1R Q211A.
The target in assay [37] is GLP-1R L141A.
For assay [38], the target named is GLP-1R S206A.
The target in assay [39] is GLP-1R L201A.
Assay [40] concerns the target cMyc-GLP-1R Y148A (human) (UniProt P43220). This is another data set of the same source.
Assay [41] deals with exendin-P5. The assay can be described thus: radioligand competition binding on whole cells. To be noted: parent: est. 0; read off a plot. (Displacement assays read how much labelled ligand stays bound in the presence of the test substance.)
Assay [42] addresses exendin-P5. Briefly: radioligand competition binding on whole cells. To be noted: parent: est. 0; read off a plot. This is another data set of the same source.
In assay [43] the target is exendin-4, P26349. Briefly: radioligand competition binding on whole cells. Conditions: chain shown with the change;; parent: est. 0; read off a plot.

Like-named read-outs stand apart in the source and are kept apart here.

What is called IC50 is the point on the concentration scale where inhibition reaches its midpoint. High values mean lower potency, low ones higher potency. Consider exendin-4 (from UniProt P26349 48-87), for which the IC50 was found to be 17.8 nM in assay [1]; 4.9 nM in assay [2]; 8.91 nM in [3]; 162 nM in [4]; 1.91 nM in assay [5]; 2.19 nM in assay [6]. Further, the IC50 in [7] turned out to be 3.89 nM; in [8] it was 0.661 nM; in assay [9], 0.617 nM; in assay [10], 0.741 nM; in assay [11], 25.1 nM; in assay [12] it was 11.7 nM. The IC50 in [13] came out at 3.47 nM; in assay [14], 0.891 nM; in assay [15], 4.37 nM; in assay [16], 407 nM; in [17] it was 38 nM; in [18], 7.76 nM. For the same molecule, the IC50 in [19] was found to be 0.479 nM; in assay [20], 2.09 nM; in [21], 1.38 nM; in assay [22], 0.692 nM.
With exendin-P5, the concentration for half-maximal inhibition (IC50) came to 182 nM in [23]; 257 nM in assay [24]; 46.8 nM in [25]; 191 nM in assay [26]; 75.9 nM in assay [27]; 437 nM in assay [28]. Also, the IC50 in assay [29] is 170 nM; in assay [30], 501 nM; in assay [31], 67.6 nM; in [32], 60.3 nM; in [33], 69.2 nM; in [34], 537 nM. Besides, the IC50 was found to be 282 nM in assay [35]; 240 nM in assay [36]; 102 nM in assay [37]; 269 nM in [38]; 251 nM in assay [39]; 135 nM in assay [40].
In the case of “wild-type cMyc-GLP-1R (from UniProt P43220) E364A”, the log10 ratio is -0.95 pIC50 ΔWT in assay [41] and -1 pIC50 ΔWT in assay [42].
Regarding “wild-type cMyc-GLP-1R (from UniProt P43220) E387A”, the log10 ratio in [41] and in [42] was -1.1 pIC50 ΔWT each time.
“wild-type cMyc-GLP-1R (from UniProt P43220) W297A”: the log10 ratio in assay [41] is -1.3 pIC50 ΔWT; in assay [42] it was -1.2 pIC50 ΔWT.

B1: wild-type cMyc-GLP-1R, P43220 K197A (protein)
chain: RPQGATVSLWETVQKWREYRRQCQRSLTEDPPPATDLFCNRTFDEYACWPDGEPGSFVNVSCPWYLPWASSVPQGHVYRFCTAEGLWLQKDNSSLPWRDLSECEESKRGERSSPEEQLLFLYIIYTVGYALSFSALVIASAILLGFRHLHCTRNYIHLNLFASFILRALSVFIADAALKWMYSTAAQQHQWDGLLSYQDSLSCRLVFLLMQYCVAANYYWLLVEGVYLYTLLAFSVLSEQWIFRLYVSIGWGVPLLFVVPWGIVKYLYEDEGCWTRNSNMNYWLIIRLPILFAIGVNFLIFVRVICIVVSKLKANLMCKTDIKCRLAKSTLTLIPLLGTHEVIFAFVMDEHARGTLRFIKLFTELSFTSFQGLMVAILYCFVNNEVQLEFRKSWERWRLEHLHIQRDSSMKPLKCPTSSLSSGATAGSSMYTATCQASCS
Turning to B1, the log10 ratio in [43] is -1.5 pIC50 ΔWT.

B2: wild-type cMyc-GLP-1R, P43220 R190A (protein)
chain: RPQGATVSLWETVQKWREYRRQCQRSLTEDPPPATDLFCNRTFDEYACWPDGEPGSFVNVSCPWYLPWASSVPQGHVYRFCTAEGLWLQKDNSSLPWRDLSECEESKRGERSSPEEQLLFLYIIYTVGYALSFSALVIASAILLGFRHLHCTRNYIHLNLFASFILAALSVFIKDAALKWMYSTAAQQHQWDGLLSYQDSLSCRLVFLLMQYCVAANYYWLLVEGVYLYTLLAFSVLSEQWIFRLYVSIGWGVPLLFVVPWGIVKYLYEDEGCWTRNSNMNYWLIIRLPILFAIGVNFLIFVRVICIVVSKLKANLMCKTDIKCRLAKSTLTLIPLLGTHEVIFAFVMDEHARGTLRFIKLFTELSFTSFQGLMVAILYCFVNNEVQLEFRKSWERWRLEHLHIQRDSSMKPLKCPTSSLSSGATAGSSMYTATCQASCS
On to B2, for which, in [43], the log10 ratio is -2.6 pIC50 ΔWT.

B3: wild-type cMyc-GLP-1R, P43220 W297A (protein)
chain: RPQGATVSLWETVQKWREYRRQCQRSLTEDPPPATDLFCNRTFDEYACWPDGEPGSFVNVSCPWYLPWASSVPQGHVYRFCTAEGLWLQKDNSSLPWRDLSECEESKRGERSSPEEQLLFLYIIYTVGYALSFSALVIASAILLGFRHLHCTRNYIHLNLFASFILRALSVFIKDAALKWMYSTAAQQHQWDGLLSYQDSLSCRLVFLLMQYCVAANYYWLLVEGVYLYTLLAFSVLSEQWIFRLYVSIGWGVPLLFVVPWGIVKYLYEDEGCATRNSNMNYWLIIRLPILFAIGVNFLIFVRVICIVVSKLKANLMCKTDIKCRLAKSTLTLIPLLGTHEVIFAFVMDEHARGTLRFIKLFTELSFTSFQGLMVAILYCFVNNEVQLEFRKSWERWRLEHLHIQRDSSMKPLKCPTSSLSSGATAGSSMYTATCQASCS
In the case of B3, the log10 ratio in [43] is -1.5 pIC50 ΔWT.
